Columns and labels:
Details in all cases: both partners purified
[1] = target: T1, NorC WT (Staphylococcus aureus subsp. aureus COL …); test: ITC; ICab (200 uM, syringe) titrated into NorC WT (20 uM, cell) with 1 mM TPP in both cell and syringe; 25 °C; 20 mM HEPES pH 7.0, 200 mM NaCl, 4 mM n-decyl-beta-D-maltopyranoside; 16 injections of 2.5 ul; one set of sites model
T1 construct: also called NorC wild-type; source: E. coli C41(DE3), extracted from membranes in DDM, purified (Ni-NTA, SEC in DM)
T1 chain: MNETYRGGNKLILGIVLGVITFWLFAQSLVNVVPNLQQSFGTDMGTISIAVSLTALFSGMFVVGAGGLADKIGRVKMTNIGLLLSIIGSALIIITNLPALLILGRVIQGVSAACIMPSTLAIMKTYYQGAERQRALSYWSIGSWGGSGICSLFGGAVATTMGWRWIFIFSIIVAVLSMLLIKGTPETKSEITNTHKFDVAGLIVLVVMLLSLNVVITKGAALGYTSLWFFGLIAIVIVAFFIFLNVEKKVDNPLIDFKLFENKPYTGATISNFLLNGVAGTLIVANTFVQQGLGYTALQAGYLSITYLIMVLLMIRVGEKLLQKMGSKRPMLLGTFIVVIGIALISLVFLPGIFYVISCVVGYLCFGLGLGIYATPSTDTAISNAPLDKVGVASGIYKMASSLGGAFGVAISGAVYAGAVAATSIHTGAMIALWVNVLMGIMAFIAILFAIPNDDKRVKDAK

[2] = target: T1, NorC WT; test: ITC; ICab (200 uM, syringe) titrated into NorC WT (20 uM, cell); 25 °C; 20 mM HEPES pH 7.0, 200 mM NaCl, 4 mM n-decyl-beta-D-maltopyranoside; one set of sites model
[3] = target: T2, NorC WT (wild-type) (Staphylococcus aureus subsp. aureus COL …); test: ITC; ICab (200 uM) in the syringe titrated into NorC WT (20 uM) in the cell, with 1 mM TPP in both cell and syringe; 25 °C; 20 mM HEPES pH 7.0, 200 mM NaCl, 4 mM n-decyl-beta-D-maltopyranoside; 16 injections of 2.5 ul; one set of sites model
T2 chain: T1 chain

[4] = target: T2, NorC WT (wild-type); test: ITC; ICab (200 uM) in the syringe titrated into NorC WT (20 uM) in the cell; 25 °C; 20 mM HEPES pH 7.0, 200 mM NaCl, 4 mM n-decyl-beta-D-maltopyranoside; one set of sites model
[5] = target: T3, NorC WT (wild-type) (Staphylococcus aureus subsp. aureus COL …); test: ITC; as without TPP+, but in the presence of 1 mM TPP+; 16 injections of 2.5 ul; 25 °C; 20 mM HEPES pH 7.0, 200 mM NaCl, 4 mM DM
T3 construct: not shown: His8, C-terminal, kept
T3 chain: T1 chain

[6] = target: T3, NorC WT (wild-type); test: MST; 10 nM transporter labelled with red Tris-NTA dye, ICab titrated from 5 uM in twofold dilutions; Monolith NT.115 premium-coated capillaries; single-site binding model

B1: single-domain Indian camelid antibody (ICab) (VHH)
VHH: QVQLEESGGGSVQAGGSLRLSCAASGYMYSTYSTYCMGWFRQAPGKEREGVAFIKRGDHSTYYTDSVKGRFTISQDSAKNTVSLQMNNLKPEDTAIYYCAADFAHSFLLSVHSGAGQYSYWGQGTQVTVSS
**Q.** What does the source list for B1?
**A.** stoichiometry N [1]: 1.14 ± 0.012; Kd [2]: 46.6 ± 8.9 nM; stoichiometry N [2]: 1.04 ± 0.005

B2: single-domain Indian camelid antibody (ICab) (VHH)
VHH: B1 VHH
notes: also called single-domain camelid antibody
**Q.** What does the source list for B2?
**A.** stoichiometry N [3]: 1.14; Kd [4]: 46.6 nM; stoichiometry N [4]: 1.04

B3: Zn2+-bound single-domain Indian camelid antibody (ICab) (VHH)
VHH: B1 VHH
notes: also called single-domain camelid antibody; vhh
**Q.** With B3 as the binder, how does the Kd [5] read?
**A.** 35.6 ± 16 nM

**Q.** And the Kd [6]?
**A.** 37.5 ± 16 nM

Reference: publication PMC8257674, “Structural basis of inhibition of a transporter from Staphylococcus aureus, NorC, through a single-domain camelid antibody” (Communications Biology, 2021)
